Laboratory results as given in patent publication US20110189183A1.

Key:
[1] = target: Candida albicans (Cat. No. 10231, ATCC) whole cells (Candida albicans); experiment: colorimetric ELISA on C. albicans cells
[2] = target: Candida krusei clinical isolate, whole cells (Candida krusei); experiment: FACS, IgG on fixed cells
[3] = target: Candida albicans (Cat. No. 10231, ATCC) whole cells (Candida albicans); experiment: FACS, IgG on fixed cells
[4] = target: Candida albicans (Cat. No. 10231, ATCC) whole cells (Candida albicans); experiment: FACS, IgG on fixed C. albicans cells, concentration at 50% maximum binding
[5] = target: Candida albicans (Cat. No. 10231, ATCC) whole cells (Candida albicans); experiment: colorimetric ELISA on C. albicans cells, [50% Max]
[6] = target: Candida glabrata clinical isolate, whole cells (Candida glabrata); experiment: FACS, IgG on fixed cells
[7] = target: Candida tropicalis clinical isolate, whole cells (Candida tropicalis); experiment: FACS, IgG on fixed cells
[8] = target: Candida albicans (Cat. No. 10231, ATCC) whole cells (Candida albicans); experiment: luminescent ELISA on C. albicans cells
[9] = target: Candida albicans (Cat. No. 10231, ATCC) whole cells (Candida albicans); experiment: FACS, IgG on fixed C. albicans cells; end tied to 1H12 by Table 23
[10] = target: Candida albicans (Cat. No. 10231, ATCC) whole cells (Candida albicans); experiment: FACS, IgG on fixed C. albicans cells; end tied to 1F8 by Table 23

Binder	EC50 [1]	affinity [2]	affinity [3]	EC50 [4]	EC50 [5]	fold higher affinity than 2G12 Polymun [1]	affinity [6]	affinity [7]	EC50 [8]	fold increased binding affinity against wildtype 2G12 [9]	fold increased binding affinity against wildtype 2G12 [10]
2G12 Polymun (Cat. No. AB002, Polymun Scientific) (antibody, V domains shown) VH: EVQLVESGGGLVKAGGSLILSCGVSNFRISAHTMNWVRRVPGGGLEWVASISTSSTYRDYADAVKGRFTVSRDDLEDFVYLQMHKMRVEDTAIYYCARKGSDRLSDNDPFDAWGPGTVVTVSP VL: DVVMTQSPSTLSASVGDTITITCRASQSIETWLAWYQQKPGKAPKLLIYKASTLKTGVPSRFSGSGSGTEFTLTISGLQFDDFATYHCQHYAGYSATFGQGTRVEIKR	500 nM	1000 nM	500 nM	500 nM	76.3 nM	–	–	–	–	–	–
2G12 IgG (wildtype, made in house) (antibody, V domains shown) VH: EVQLVESGGGLVKAGGSLILSCGVSNFRISAHTMNWVRRVPGGGLEWVASISTSSTYRDYADAVKGRFTVSRDDLEDFVYLQMHKMRVEDTAIYYCARKGSDRLSDNDPFDAWGPGTVVTVSP VL: DVVMTQSPSTLSASVGDTITITCRASQSIETWLAWYQQKPGKAPKLLIYKASTLKTGVPSRFSGSGSGTEFTLTISGLQFDDFATYHCQHYAGYSATFGQGTRVEIKR	–	–	–	150 nM	9.7 nM	8 fold	–	–	–	–	–
P1F9 IgG (antibody, V domains shown) VH: EVQLVESGGGLVKAGGSLILSCGVSNFRISAHTMNWVRRVPGGGLEWVASISTSSTYRDYADAVKGRFTVSRDDLEDFVYLQMHKMRVEDTAIYYCARKGSDRLSDNDPFDAWGPGTVVTVSP VL: GVVMTQSPSTLSASVGDTITITCRASQSIETWLAWYQQKPGKAPKLLIYKASTLKTGVPSRFSGSGSGTEFTLTISGLQFDDFATYHCQHYRAHTGATFGQGTRVEIKR	3.2 nM	27 nM	23 nM	–	–	–	102 nM	51 nM	19 nM	–	–
1H12 IgG (antibody, V domains shown) VH: EVQLVESGGGLVKAGGSLILSCGVSNFRISAHTMNWVRRVPGGGLEWVASISTSSTYRDYADAVKGRFTVSRDDLEDFVYLQMHKMRVEDTAIYYCARKGSDRLSDNDPFDAWGPGTVVTVSP VL: GVVMTQSPSTLSASVGDTITITCRASQSIETWLAWYQQKPGKAPKLLIYKASTLKTGVPSRFSGSGSGTEFTLTISGLQFDDFATYHCQHYMPYRASFGQGTRVEIKR	0.82 nM	17 nM	10 nM	5.2 nM	0.4 nM	–	12 nM	23 nM	6.1 nM	30 fold	–
1F8 IgG (antibody, V domains shown) VH: EVQLVESGGGLVKAGGSLILSCGVSNFRISAHTMNWVRRVPGGGLEWVASISTSSTYRDYADAVKGRFTVSRDDLEDFVYLQMHKMRVEDTAIYYCARKGSDRLSDNDPFDAWGPGTVVTVSP VL: GVVMTQSPSTLSASVGDTITITCRASQSIETWLAWYQQKPGKAPKLLIYKASTLKTGVPSRFSGSGSGTEFTLTISGLQFDDFATYHCQHYLPFNATFGQGTRVEIKR	–	–	–	15.1 nM	0.9 nM	–	–	–	–	–	10 fold
P4H12 IgG (antibody, V domains shown) VH: EVQLVESGGGLVKAGGSLILSCGVSNFRISAHTMNWVRRVPGGGLEWVASISTSSTYRDYADAVKGRFTVSRDDLEDFVYLQMHKMRVEDTAIYYCARKGSDRLSDNDPFDAWGPGTVVTVSP VL: GVVMTQSPSTLSASVGDTITITCRASQSIETWLAWYQQKPGKAPKLLIYKASTLKTGVPSRFSGSGSGTEFTLTISGLQFDDFATYHCQHYTAHRGATFGQGTRVEIKR	–	–	–	–	–	–	–	21 nM	–	–	–
A5G10 IgG (antibody, V domains shown) VH: EVQLVESGGGLVKAGGSLILSCGVSNFRISAHTMNWVRRVPGGGLEWVASISTSSTYRDYADAVKGRFTVSRDDLEDFVYLQMHKMRVEDTAIYYCARKGSDRLSDNDPFDAWGPGTVVTVSP VL: GVVMTQSPSTLSASVGDTITITCRASQSIETWLAWYQQKPGKAPKLLIYKASTLKTGVPSRFSGSGSGTEFTLTISGLQFDDFATYHCQHYRPHTGATFGQGTRVEIKR	–	50 nM	50 nM	–	–	–	72 nM	–	–	–	–
